B1: MIA2 (parent)
chain: SVIEPVQESSFRSRKIAVEDENDL

Variants of: B1
Experiment: protein stability index of a GFP-peptide fusion (GPS, HEK-293T) (PSI 1-6); higher = more stable
Settings: c terminus: a fixed tail appended
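Also: lentivirally expressed fusions sorted by FACS into six bins by GFP to DsRed ratio, PSI derived from sequencing read proportions per bin multiplied by bin number.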

In order of falling protein stability index:
1. R12P  6
2. R12S  5.94
3. F11D  5.92
4. F11T  5.86
5. F11E  5.84
6. R12A  5.81
7. S10G  5.78
8. S10H  5.77
9. R12E  5.75
10. R14D  5.75
11. R14N  5.75
12. K15Q  5.71
13. K15E  5.69
14. I16D  5.68
15. F11R  5.67
16. S10Q  5.67
17. K15N  5.67
18. R14Q  5.67
19. R14K  5.67
20. R12H  5.66
21. S13T  5.66
22. S9P  5.66
23. S13A  5.65
24. K15P  5.65
25. E8N  5.64
26. K15A  5.63
27. F11N  5.62
28. R12N  5.61
29. S13N  5.61
30. K15S  5.61
31. R12D  5.6
32. I16N  5.6
33. R14G  5.55
34. S10D  5.54
35. S10K  5.54
36. R12G  5.53
37. S13R  5.53
38. R14A  5.53
39. K15D  5.52
40. R14V  5.51
41. S10A  5.49
42. F11L  5.46
43. R12T  5.46
44. I16S  5.45
45. S9R  5.45
46. F11W  5.44
47. R12Q  5.44
48. S13G  5.44
49. S9K  5.44
50. K15V  5.43
51. K15R  5.43
52. R12K  5.42
53. I16M  5.42
54. I16G  5.42
55. R12M  5.41
56. F11K  5.4
57. R14H  5.4
58. R14P  5.4
59. F11H  5.37
60. R12V  5.36
61. K15H  5.36
62. S9Q  5.35
63. S9D  5.35
64. S9A  5.35
65. S10C  5.34
66. R14E  5.32
67. S9I  5.31
68. R14T  5.31
69. S13E  5.3
70. K15Y  5.29
71. F11G  5.28
72. E8G  5.28
73. E8A  5.28
74. S10N  5.28
75. S10V  5.28
76. E8P  5.27
77. S10E  5.27
78. F11S  5.26
79. F11Y  5.26
80. S13H  5.25
81. S9Y  5.25
82. S13V  5.23
83. R12L  5.22
84. I16R  5.22
85. K15C  5.2
86. F11M  5.19
87. S13L  5.19
88. I16E  5.19
89. S9V  5.19
90. S9T  5.19
91. S13P  5.18
92. S13K  5.18
93. F11V  5.16
94. F11I  5.15
95. I16Q  5.15
96. E8V  5.14
97. K15L  5.14
98. I16L  5.13
99. R14S  5.13
100. R12I  5.12
101. S13Y  5.12
102. I16F  5.12
103. S13I  5.11
104. K15M  5.11
105. K15T  5.11
106. E8Q  5.1
107. S9N  5.09
108. S9C  5.09
109. F11P  5.08
110. S9G  5.08
111. R14C  5.08
112. S13C  5.05
113. S13D  5.05
114. K15I  5.05
115. S9E  5.05
116. I16P  5.04
117. R14I  5.04
118. S13F  5.03
119. S13Q  5.03
120. K15F  5.03
121. E8L  5.02
122. E8H  5.02
123. S10P  5.02
124. S10R  5.02
125. R14M  5.02
126. I16K  5.01
127. R12Y  4.98
128. S9H  4.98
129. R14L  4.98
130. E8C  4.97
131. F11C  4.9
132. S10M  4.89
133. S13M  4.86
134. S9W  4.86
135. K15G  4.85
136. E8I  4.83
137. R12F  4.83
138. R12C  4.82
139. S10Y  4.81
140. F11A  4.79
141. E8R  4.79
142. E8K  4.78
143. S10F  4.74
144. S10L  4.72
145. S10W  4.72
146. S13W  4.72
147. I16A  4.72
148. F11Q  4.71
149. E8W  4.66
150. S9F  4.64
151. E8F  4.63
152. E8M  4.58
153. R12W  4.55
154. E8T  4.52
155. E8Y  4.49
156. E8D  4.48
157. S10T  4.48
158. S9L  4.48
159. K15W  4.44
160. E8S  4.42
161. R14Y  4.42
162. R14F  4.39
163. S9M  4.37
164. S10I  4.28
165. I16H  4.28
166. I16C  4.17
167. R14W  4.13

Reference: the supplement of paper PMC10567573
